Where two headings read alike, the source gives them in different places.
T1: interaction between PTP HSCF and PSTPIP (Mus musculus, UniProt P97814)
T1 construct: made in house; host or cells: GST fusion: E. coli DH5-alpha; PSTPIP: in vitro transcription/translation in rabbit reticulocyte lysate (Promega TnT)
T1 sequence (P97814 1-415): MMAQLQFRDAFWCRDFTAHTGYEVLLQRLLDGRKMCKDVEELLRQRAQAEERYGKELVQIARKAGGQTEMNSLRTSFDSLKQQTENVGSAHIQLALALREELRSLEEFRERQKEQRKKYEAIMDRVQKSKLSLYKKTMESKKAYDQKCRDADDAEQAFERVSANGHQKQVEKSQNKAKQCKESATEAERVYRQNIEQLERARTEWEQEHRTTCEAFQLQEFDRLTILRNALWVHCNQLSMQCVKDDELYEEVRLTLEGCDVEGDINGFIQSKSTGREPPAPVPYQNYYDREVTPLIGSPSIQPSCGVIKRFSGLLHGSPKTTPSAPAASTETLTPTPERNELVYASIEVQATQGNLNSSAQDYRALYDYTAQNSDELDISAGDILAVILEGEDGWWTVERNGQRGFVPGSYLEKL

T2: PSTPIP (Mus musculus, UniProt P97814)
T2 construct: containing the full-length cDNA for PSTPIP (amino acids 2-415) was subcloned into pGEX4T-2; made in house; host or cells: E. coli DH5-alpha
T2 sequence (P97814 2-415): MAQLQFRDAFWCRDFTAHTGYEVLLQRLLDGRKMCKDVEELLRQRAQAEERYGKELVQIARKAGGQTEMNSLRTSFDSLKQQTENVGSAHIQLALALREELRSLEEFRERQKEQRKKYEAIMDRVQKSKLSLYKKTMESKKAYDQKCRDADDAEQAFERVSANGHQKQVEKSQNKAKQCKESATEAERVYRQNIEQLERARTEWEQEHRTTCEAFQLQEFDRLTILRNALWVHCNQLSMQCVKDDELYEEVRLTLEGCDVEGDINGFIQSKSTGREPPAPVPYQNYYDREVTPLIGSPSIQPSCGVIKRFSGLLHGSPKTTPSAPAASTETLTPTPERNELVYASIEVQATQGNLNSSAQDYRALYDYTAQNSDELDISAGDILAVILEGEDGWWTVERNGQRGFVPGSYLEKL

B1: R444+W450: PTP HSCF double mutant with R444 and W450 mutated to alanine (protein)
chain: MSRHTDLVRSFLEQLEARDYREGAILAREFSDIKARSVAWKSEGVCSTKAGSRLGNTNKNRYKDVVAYDETRVILSLLQEEGHGDYINANFIRGIDGSQAYIATQGPLPHTLLDFWRLVWEFGVKVILMACQETENGRRKCERYWAREQEPLKAGPFCITLTKETTLNADITLRTLQVTFQKEFRSVHQLQYMSWPDHGVPSSSDHILTMVEEARCLQGLGPGPLCVHCSAGCGRTGVLCAVDYVRQLLLTQTIPPNFSLFQVVLEMRKQRPAAVQTEEQYRFLYHTVAQLFSRTLQDTSPHYQNLKENCAPICKEAFSLRTSSALPATSRPPGGVLRSISVPAPPTLPMADTYAVVQKRGASAGTGPGPRAPTSTDTPIYSQVAPRAQRPVAHTEDAQGTTALRRVPADQNSSGPDAYEEVTDGAQTGGLGFNLRIGRPKGPADPPAEATRV
modifications: left off: small tags and cut ends
notes: PTP HSCF double mutant with R444 and W450 mutated to alanine
B2: deletion of the C-terminal 20 amino acid homology domain of PTP HSCF: PTP HSCF deletion mutant missing the C-terminal homology domain (protein, UniProt Q99952 1-440, looked up, fragment)
chain: MSRSLDSARSFLERLEARGGREGAVLAGEFSDIQACSAAWKADGVCSTVAGSRPENVRKNRYKDVLPYDQTRVILSLLQEEGHSDYINGNFIRGVDGSLAYIATQGPLPHTLLDFWRLVWEFGVKVILMACREIENGRKRCERYWAQEQEPLQTGLFCITLIKEKWLNEDIMLRTLKVTFQKESRSVYQLQYMSWPDRGVPSSPDHMLAMVEEARRLQGSGPEPLCVHCSAGCGRTGVLCTVDYVRQLLLTQMIPPDFSLFDVVLKMRKQRPAAVQTEEQYRFLYHTVAQMFCSTLQNASPHYQNIKENCAPLYDDALFLRTPQALLAIPRPPGGVLRSISVPGSPGHAMADTYAVVQKRGAPAGAGSGTQTGTGTGTGARSAEEAPLYSKVTPRAQRPGAHAEDARGTLPGRVPADQSPAGSGAYEDVAGGAQTGGLGF

Key:
[1] = molecular target: T1, interaction between PTP HSCF and PSTPIP; conditions: previous studies (Spencer et al. 1997); cited from earlier work
[2] = system: PST PIP - PTP HSCF association; assay: Coprecipitation of PST PIP and PTP HSCF from co-transfected COS cells; type: cell-based
Method: COS-7 cells were transfected by electroporation. Briefly, 1.5×10^6 COS-7 cells were mixed with 24 μg total DNA in PBS and electroporated at 960 μF, […] (Bio-Rad™ Gene Pulsar™). Following electroporation, cells were seeded in 10 cm dishes and incubated for 3 days. 10-cm dishes of transfected COS cells were washed twice with ice-cold PBS, and lysed in 1 ml of M-RIPA (50 mM Tris 7.4, 1% NP40, 0.25% DOC, 150 mM NaCl, 1 mM sodium ortho-vanadate, 1 mM NaF plus Complete™ Protease Inhibitors (Boehringer Mannheim)). Lysates were incubated for 15 minutes with 100 μl UltraLink Immobilized Protein A/G™ (Pierce) at 4° C., followed by centrifugation for 5 minutes. Supernatants were collected and stored at −70° C. or directly immunoprecipitated. 5 μg of M2 or 12CA5 was added to 500 μl of lysate and incubated overnight at 4° C. Ultralink Protein A/G™ was added and incubation continued for 2 hours at 4° C. The immune complexes were washed 3 times with M-RIPA. The proteins were subjected to SDS-PAGE and transferred to nitrocellulose in 1X Transfer Buffer™ (Novex). Immunoblots were blocked overnight at 4° C. in 3% milk/PBS. To detect Flag-tagged PIP, blots were incubated with 10 μg/ml Bio-M2 (Biotinylated anti-FLAG monoclonal Ab, KODAK) followed by incubation in 10 μg/ml streptavidin-HRP (UBI). To detect HA-tagged PTPhscf, blots were incubated in anti-(HA)-peroxidase (Boehringer Mannheim) as per manufacturer's instructions. To detect phosphotyrosine, blots were incubated in HRP-conjugated 4G10 (anti-phosphotyrosine monoclonal, UBI) as per manufacture's instructions.
In vitro binding analyses between various PTP HSCF and PST PIP constructs were performed as previously described (Spencer et al, (1997), supra). Briefly, plasmids were transcribed and translated in vitro using the TnT Rabbit Reticulocyte Lysate System (Promega). Samples were diluted in 50 mM HEPES, pH 7.2, 1% triton X-100, 10% glycerol, 100 mM NaCl, and 2 μg/ml each of leupeptin, pepstatin, aprotinin and PMSF (lysis buffer). Samples were than reacted with GST fusion proteins at various concentrations, and the bound proteins were centrifuged using glutathione-sepharose beads and analyzed on SDS polyacrylamide gels. C-terminally-derived peptide inhibition studies were performed by incubating the GST fusion protein binding reactions in the presence of 10 μg/ml of the indicated peptides. Peptides were produced by FMOC-protected amino acids as previously described (Spencer et al, (1997), supra). In vivo interactions between various forms of PTP HSCF and PST PIP were also performed as previously described (Spencer et al, (1997), supra). Briefly, COS cells were transfected with various constructs, and after 48 hours, lysates were prepared and immunoprecipitated with antibodies to either the FLAG epitope contained at the C-terminus of PST PIP or an HA epitope contained at the N-terminus of PTP HSCF. The resultant blots were probed with anti-FLAG to detect PST PIP, anti-HA to detect PTP HSCF or anti-phosphotyrosine to detect levels of this modified amino acid in each protein.

PSTPIP = molecular target: T2, PSTPIP; assay: In vitro GST pull-down binding of PTP HSCF forms to GST PSTPIP; design: species or system murine; conditions: 1 or 10 μg/ml GST PST PIP
Method: The binding was carried out according to the method of Wong and Johnson (Wong et al., J. Biol. Chem. 271(35):20981-20984 (1996)). Briefly, 1 μg of plasmid with either the PSTPIP protein or PTP HSCF under the control of the Sp6 promoter was in vitro transcribed/translated using the Promega™ TnT Rabbit Reticulocyte™ system. Samples were diluted in 50 mM HEPES, pH 7.2, 1% triton X 100, 10% glycerol, 100 mM NaCl, 5 mM EDTA and 2 μg/ml each of leupeptin, pepstatin, aprotinin, and PMSF. […] This was reacted for 1 hour at 4° C. and then the resin washed 6 times in HEPES/Triton binding buffer before SDS gel electrophoresis. The peptides were synthesized on an automated Milligen 9050 Peptide Synthesizer using standard solid phase chemistry with FMOC protected amino acids on a p-alkoxybenzyl alcohol resin. Dried peptides were re-suspended in the HEPES/Triton Binding buffer at a concentration of 10 mg/ml. Peptide inhibition was performed by adding the peptide first to the in vitro translation product and then the GST-fusion followed by the GSH-Sepharose. […]
In vitro binding analyses between various PTP HSCF and PST PIP constructs were performed as previously described (Spencer et al, (1997), supra). […] Samples were than reacted with GST fusion proteins at various concentrations, and the bound proteins were centrifuged using glutathione-sepharose beads and analyzed on SDS polyacrylamide gels. […]

Molecule	blocking of the PTP HSCF-PST PIP interaction by C-terminal peptides of related PTPs [1]	in vivo association (coprecipitation) of PST PIP and PTP HSCF [2]	in vivo association (coprecipitation) of PST PIP and PTP HSCF ([2]; listed as PTP HSCF444+450)	binding of in vitro translated PTP HSCF forms to GST PSTPIP (PSTPIP)
GFGNRCGKPKGPRDPPSEWT [PXXP-PEST]	effectively block the interaction	–	–	–
GFGNRFSKPKGPRNPPSAW [PXXP-PEP]	effectively block the interaction	–	–	–
B1	–	as poor at interacting in vivo with PST PIP as the mutant which was missing the entire C-terminal proline rich domain	complete loss of coprecipitation	stronger inhibitory effect on binding to PST PIP
B2	–	–	–	completely abolished the interaction
